Reference: doi:10.1101/2021.04.27.441571
Each block holds one molecule with its values, some of them ahead of it.

Tests used:
[1] = biological target: wild type (WT) talin R3 domain
talin R3-IVVI domain [2] = biological target: talin R3-IVVI domain
talin R3-IVVI domain [3] = biological target: talin R3-IVVI domain; remark: listed apart in the source
talin R3-IVVI domain [4] = biological target: talin R3-IVVI domain; remark: listed apart in the source
talin R3-IVVI domain [5] = biological target: talin R3-IVVI domain; remark: listed apart in the source

Molecule: DnaJ (from UniProt P08622 1-376) (natural protein)
intersection force of R3-WT with DnaJ; without chaperone ∼6 pN [1]: 4 pN | percent of force-ramp events of R3-IVVI with hysteresis, with DnaJ; control ∼9% (talin R3-IVVI domain [2]): 86%

Molecule: Hsp70 (from UniProt P0DMV8 1-641) (natural protein)
intersection force of talin R3-IVVI (chevron plot), with Hsp70; control 9.8 pN (talin R3-IVVI domain [5]): 7.2 pN

B1: DsbA (oxidized) (enzyme)
chain: AQYEDGKQYTTLEKPVAGAPQVLEFFSFFCPHCYQFEEVLHISDNVKKKLPEGVKMTKYHVNFMGGDLGKDLTQAWAVAMALGVEDKVTVPLFEGVQKTQTIRSASDIRDVFINAGIKGEEYDAAWNSFVVKSLVAQQEKAAADVQLRGVPAMFVNGKYQLNPQGMDTSNMDVFVQQYADTVKYLSEKK
modifications: oxidized (0.3% H2O2 overnight)
intersection force of R3-WT with DsbA; without chaperone ∼6 pN [1]: 10 pN

Results, then the molecule that gave them:

intersection force of R3-WT with DnaK; without chaperone ∼6 pN [1]: 4 pN | unfolding force of R3-IVVI in the presence of DnaK, DnaJ and ADP (DnaKJ-ADP) (talin R3-IVVI domain [3]): 6 pN | unfolding force of R3-IVVI with DnaK after addition of ATP (apo-DnaK: ∼6 pN) (talin R3-IVVI domain [3]): 7.5 pN | intersection force of R3-IVVI with DnaK-ADP complex (chevron plot) (talin R3-IVVI domain [4]): 7.1 pN | intersection force of R3-IVVI with DnaK-ATP (chevron plot) (talin R3-IVVI domain [4]): 7.6 pN | percent of force-ramp events of R3-IVVI with hysteresis, with DnaK; control ∼9% (talin R3-IVVI domain [2]): 91%
Molecule: DnaK (from UniProt P0A6Y8 1-638) (natural protein)

intersection force of talin R3-IVVI (chevron plot), with Hsp40; control 9.8 pN (talin R3-IVVI domain [5]): 7.8 pN
Molecule: Hsp40 (from UniProt P25685 1-340) (natural protein)
